The assay deals with T1, streptavidin (Streptomyces avidinii, UniProt P22629 37-163).
T1 construct: also called streptavidin-coated beads; streptavidin-coated magnetic beads
The assay can be described thus: direct binding assay with plate-immobilized streptavidin and HRP-conjugated anti-FLAG antibody.

The values below come from patent publication US20200299675A1 (UNIVERSITY OF ROCHESTER, published 2020).

T1 sequence (P22629 37-163, tags left off): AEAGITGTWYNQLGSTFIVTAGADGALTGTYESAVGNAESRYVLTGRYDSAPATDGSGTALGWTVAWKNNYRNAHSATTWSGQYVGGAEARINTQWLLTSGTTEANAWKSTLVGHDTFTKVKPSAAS
Procedure: For the Keap1 binding assay, Keap1 was immobilized on microtiter plates by incubating 100 μL of a 4 μM protein solution in PBS buffer overnight at 4° C., followed by washing (3×150 μL of PBS with 0.5% Tween-20) and blocking with 0.5% bovine serum albumin in PBS for 1.5 h at room temperature. After washing, each well was incubated with 100 μL of purified FLAG-tagged peptide at varying concentrations for 1 hour at room temperature. After washing three times with wash buffer, each well was incubated with 100 μL of 1:2500 dilution of HRP-conjugate mouse anti-FLAG polyclonal antibody (Sigma-Aldrich) for 1 hour at room temperature. After three washing step with wash buffer, 100 μL of 2.2 mM o-phenylenediamine dihydrochloride, 4.2 mM urea hydrogen peroxide, 100 mM dibasic sodium phosphate, and 50 mM sodium citrate, pH 5.0, were added to each well, followed by measurement of the absorbance at 450 nm after 10-20 min using a Tecan Infinite 1000 plate reader. Equilibrium dissociation constants (KD) were determined by fitting the dose-response curves to a 1:1 binding isotherm equation via nonlinear regression using SigmaPlot. Mean values and standard deviations were calculated from experiments performed in triplicate.

B1: CBD alone (other)
chain: MKIEEGKLTNPGVSAWQVNTAYTAGQLVTYNGKTYKCLQPHTSLAGWEPSNVPALWQLQNNGNNGLELRHG
In the case of B1, the binding result is listed as “no binding”.
